From patent publication EP4722370A1 come the findings set out here.

Assay [1] concerns the target his-tagged DLL3 antigen protein (UniProt Q9NYJ7). Briefly: flow cytometry; transduced T cells, method of the earlier example (his-tagged DLL3 staining).
Assay [2] has the same target. Briefly: flow cytometry; transduced T cells with 3 ug/ml his-tagged DLL3, AF647 secondary antibody. (In general: Flow cytometry measures light scatter and fluorescence of single cells or particles in a stream.)

Sequence of UniProt Q9NYJ7 (Q9NYJ7 27-492 limits assumed): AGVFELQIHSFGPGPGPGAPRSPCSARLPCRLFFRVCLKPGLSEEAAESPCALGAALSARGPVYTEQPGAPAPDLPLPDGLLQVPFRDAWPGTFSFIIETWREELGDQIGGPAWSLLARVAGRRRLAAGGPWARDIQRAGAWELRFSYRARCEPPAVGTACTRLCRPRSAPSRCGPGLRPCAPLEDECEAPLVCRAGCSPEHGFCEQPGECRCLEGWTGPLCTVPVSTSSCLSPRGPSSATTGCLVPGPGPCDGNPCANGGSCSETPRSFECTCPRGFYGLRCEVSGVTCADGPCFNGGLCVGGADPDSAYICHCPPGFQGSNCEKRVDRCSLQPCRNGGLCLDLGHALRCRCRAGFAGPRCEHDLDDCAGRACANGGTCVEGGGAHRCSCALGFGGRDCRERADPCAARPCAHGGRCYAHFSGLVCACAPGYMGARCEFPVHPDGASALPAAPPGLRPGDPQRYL

B1: DLL3-CAR09 (protein)
chain: DIVMTQSPLSLPVTPGEPASISCRASQTISDYLHWYLQKPGQSPQLLIKYASQSISGVPDRFSGSGSGSDFTLKISRVEAEDVGVYYCQQGHSFPLTFGQGTKLEIKGGGGSGGGGSGGGGSEVQLVQSGAEVKKPGASVKVSCKASGYTFTSYWMHWVRQAPGQRLEWMGTIYPGNSDTRYNQKFKDRVTITADTSASTAYMELSSLRSEDTAVYYCTRSYDYGDLDYWGQGTTVTVSSAAAIEVMYPPPYLDNEKSNGTIIHVKGKHLCPSPLFPGPSKPFWVLVVVGGVLACYSLLVTVAFIIFWVRSKRSRLLHSDYMNMTPRRPGPTRKHYQPYAPPRDFAAYRSRVKFSRSADAPAYQQGQNQLYNELNLGRREEYDVLDKRRGRDPEMGGKPRRKNPQEGLYNELQKDKMAEAYSEIGMKGERRRGKGHDGLYQGLSTATKDTYDALHMQALPPR
Consider B1, for which the CAR expression level (% of T cells stained with his-tagged DLL3 antigen protein) is 74% in assay [1] and 69% in assay [2].
